Common to all, as to assay: purified protein
Conditions in all cases: 0.25 mM NADPH, 50 mM sodium phosphate pH 7.0, 30 °C, reduction

Substrate in data set [1]: O=CC(O)CO
Substrate in data set [2]: O=Cc1ccc([N+](=O)[O-])cc1
It counts as biochemical, Zea mays.

Substrate in data set [3]: CC(=O)C=O
The class given is biochemical, Zea mays.

B1: ZmAKR4C13 (Zea mays) (protein)
chain: MASAQAVGQGERGHFVLKSGHTIPAVGLGTWRAGSDTAHSVRTAIAEAGYRHVDTAAQYGVEKEVGRGLKAAMEGGINRKDLFVTSKLWCTELAPDRVRPALEKTLKDLQLDYLDLYLIHWPFRLKDGAHMPPEAGEVLEFDMEGVWREMEGLVKDGLVKDIGVCNYTVAKLNRLMRSANVPPAVCQMEMHPGWKNDRIFEACKKHGIHVTAYSPLGSSEKNLAHDPLVEKVANKLDKTPGQVLLRWALQRGTSVIPKSTRDERIKENIQVFGWEIPEEDFRALCGIKDEKRVLTGEELFVNKTHGPYKSATEVWDHED
notes: monomer
On to B1, for which, in “purified protein [1]”, the Km is 1460 ± 290 µM, the catalytic constant (kcat) stood at 18 s⁻¹ and the kcat/Km turned out to be 12400 M⁻¹ s⁻¹. For the same protein, in “purified protein [2]”, the Michaelis-Menten constant (Km) stood at 100 ± 20 µM, the kcat worked out at 0.65 s⁻¹ and the specificity constant (kcat/Km) is 6510 M⁻¹ s⁻¹. Further, in “purified protein [3]”, the Km is 940 ± 80 µM, the turnover number (kcat) turned out to be 2.21 s⁻¹ and the kcat/Km worked out at 2350 M⁻¹ s⁻¹.

The term Km denotes the substrate concentration at which the rate is half of its maximum. Broadly, the kcat is the number of substrate molecules converted per active site and unit of time at saturation. A word on the kcat/Km: it is the second-order rate constant that governs catalysis at low substrate concentration.

Values taken from article PMC12302338, “Functional genomics and structural insights into maize aldo-keto reductase-4 family: Stress metabolism and substrate specificity in embryos” (The Journal of Biological Chemistry, 2025).
